The values below come from US20150274828A1 (SHANGHAI SERUM BIOTECHNOLOGY, published 2015).

Positions count from the first letter of the chain named. Some results are limits rather than exact numbers.

For the test, the target named is T1, EGFR-Fc fusion protein (recombinant EGFR extracellular region-Fc) (human, UniProt P00533 25-645).
T1 construct: extracellular domain; not shown: Fc part supplied by vector pABG1
In words: BLI ForteBio QKe, biotinylated EGFR-Fc on streptavidin sensor, antibody 20 nM; fold reduction of affinity, parent Ame55 = 1.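 Further: parent antibody affinity set as 1, with values giving the fold drop in affinity of each mutant antibody relative to that parent.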 Background: BLI is a label-free optical method that tracks binding on a fibre tip over time.

B1: Ame55 mutant, heavy chain 51A (antibody, V domains shown)
VH: EVQLVQSGAEVKKPGESLKISCKGSGYSFTSYWIGWVRQMPGKGLEWMGIAYPGDSDTRYSPSFQGQVTISADKSISTAYLQWSSLKASDTAMYYCARGIIYPSNVAVWGQGTLVTVSS
VL: SYELTQPPSVSVAPGQTARITCSGDALGDKYASWYQQKPGQAPVLVIYEDSKRPSGIPERFSGSNSGNTATLTISGTQAEDEADYYCSVWDGDWGMPVFGGGTKLTVLG
notes: Mutant of Ame55
Regarding B1, the Affinity change was more than 10 fold.

B2: Ame55 mutant, heavy chain 52D (antibody, V domains shown)
VH: B1 VH with A51I, Y52D
VL: B1 VL
notes: Mutant of Ame55
For the molecule B2, the Affinity change was more than 10 fold.

B3: Ame55 mutant, heavy chain 53A (antibody, V domains shown)
VH: B1 VH with A51I, P53A
VL: B1 VL
notes: Mutant of Ame55
For B3, the Affinity change is 5 fold.

B4: Ame55 mutant, light chain 55P (antibody, V domains shown)
VH: B1 VH with A51I
VL: B1 VL with S55P
notes: Mutant of Ame55
On to B4, for which the Affinity change came out at 2 fold.

B5: Ame55 mutant, light chain 91A (antibody, V domains shown)
VH: B1 VH with A51I
VL: B1 VL with D91A
notes: Mutant of Ame55
Take B5: the Affinity change was more than 10 fold.

B6: Ame55 mutant, heavy chain 54S (antibody, V domains shown)
VH: B1 VH with A51I, G54S
VL: B1 VL
notes: Mutant of Ame55
For the molecule B6, the Affinity change is 0.5 fold.

B7: Ame55 mutant, heavy chain 54A (antibody, V domains shown)
VH: B1 VH with A51I, G54A
VL: B1 VL
notes: Mutant of Ame55
In the case of B7, the Affinity change is more than 10 fold.

B8: Ame55 mutant, heavy chain 59N (antibody, V domains shown)
VH: B1 VH with A51I, R59N
VL: B1 VL
notes: Mutant of Ame55
On to B8, for which the Affinity change is more than 10 fold.

B9: Ame55 mutant, heavy chain 56A (antibody, V domains shown)
VH: B1 VH with A51I, S56A
VL: B1 VL
notes: Mutant of Ame55
For the molecule B9, the Affinity change is 1 fold.

B10: Ame55 mutant, light chain 33Y (antibody, V domains shown)
VH: B1 VH with A51I
VL: B1 VL with S33Y
notes: Mutant of Ame55
B10: the Affinity change was determined as 2 fold.

B11: Ame55 mutant, light chain 92P (antibody, V domains shown)
VH: B1 VH with A51I
VL: B1 VL with G92P
notes: Mutant of Ame55
Consider B11, for which the Affinity change was 1 fold.

B12: Ame55 mutant, light chain 32I (antibody, V domains shown)
VH: B1 VH with A51I
VL: B1 VL with A32I
notes: Mutant of Ame55
For the molecule B12, the Affinity change is 1 fold.

B13: Ame55 mutant, light chain 92A (antibody, V domains shown)
VH: B1 VH with A51I
VL: B1 VL with G92A
notes: Mutant of Ame55
As for B13, the Affinity change was 2 fold.

B14: Ame55 mutant, heavy chain 55A (antibody, V domains shown)
VH: B1 VH with A51I, D55A
VL: B1 VL
notes: Mutant of Ame55
For the molecule B14, the Affinity change was more than 100 fold.

B15: Ame55 mutant, heavy chain 108A (antibody, V domains shown)
VH: B1 VH with A51I, V108A
VL: B1 VL
notes: Mutant of Ame55
For B15, the Affinity change is 5 fold.

B16: Ame55 mutant, light chain 88G (antibody, V domains shown)
VH: B1 VH with A51I
VL: B1 VL with S88G
notes: Mutant of Ame55
For B16, the Affinity change was determined as 3 fold.

B17: Ame55 mutant, light chain 88L (antibody, V domains shown)
VH: B1 VH with A51I
VL: B1 VL with S88L
notes: Mutant of Ame55
On to B17, for which the Affinity change came out at 5 fold.

B18: Ame55 mutant, light chain 51G (antibody, V domains shown)
VH: B1 VH with A51I
VL: B1 VL with S51G
notes: Mutant of Ame55
For the molecule B18, the Affinity change was 1 fold.

B19: Ame55 mutant, heavy chain 99A (antibody, V domains shown)
VH: B1 VH with A51I, G99A
VL: B1 VL
notes: Mutant of Ame55
Regarding B19, the Affinity change is more than 10 fold.

B20: Ame55 mutant, heavy chain 107G (antibody, V domains shown)
VH: B1 VH with A51I, A107G
VL: B1 VL
notes: Mutant of Ame55
With B20, the Affinity change was found to be 1.5 fold.

B21: Ame55 mutant, light chain 88A (antibody, V domains shown)
VH: B1 VH with A51I
VL: B1 VL with S88A
notes: Mutant of Ame55
As to B21, the Affinity change was more than 10 fold.

B22: Ame55 mutant, light chain 29E (antibody, V domains shown)
VH: B1 VH with A51I
VL: B1 VL with D29E
notes: Mutant of Ame55
For the molecule B22, the Affinity change is more than 100 fold.

B23: Ame55 mutant, light chain 88N (antibody, V domains shown)
VH: B1 VH with A51I
VL: B1 VL with S88N
notes: Mutant of Ame55
Consider B23, for which the Affinity change was more than 10 fold.

B24: Ame55 mutant, heavy chain 59A (antibody, V domains shown)
VH: B1 VH with A51I, R59A
VL: B1 VL
notes: Mutant of Ame55
Take B24: the Affinity change was more than 10 fold.

B25: Ame55 mutant, light chain 26K(C3) (antibody, V domains shown)
VH: B1 VH with A51I
VL: B1 VL with A26K
notes: Mutant of Ame55
Consider B25, for which the Affinity change stood at 0.3 fold.

B26: Ame55 mutant, light chain 26G(C1) (antibody, V domains shown)
VH: B1 VH with A51I
VL: B1 VL with A26G
notes: Mutant of Ame55
For the molecule B26, the Affinity change came out at 0.5 fold.

B27: Ame55 mutant, light chain 32V (antibody, V domains shown)
VH: B1 VH with A51I
VL: B1 VL with A32V
notes: Mutant of Ame55
In the case of B27, the Affinity change is 2 fold.

B28: Ame55 mutant, heavy chain 104A (antibody, V domains shown)
VH: B1 VH with A51I, S104A
VL: B1 VL
notes: Mutant of Ame55
On to B28, for which the Affinity change was determined as 3 fold.

B29: Ame55 mutant, light chain 88Y (antibody, V domains shown)
VH: B1 VH with A51I
VL: B1 VL with S88Y
notes: Mutant of Ame55
Turning to B29, the Affinity change is 5 fold.

B30: Ame55 mutant, heavy chain 101A (antibody, V domains shown)
VH: B1 VH with A51I, I101A
VL: B1 VL
notes: Mutant of Ame55
B30: the Affinity change worked out at 4 fold.

B31: Ame55 mutant, heavy chain 105A (antibody, V domains shown)
VH: B1 VH with A51I, N105A
VL: B1 VL
notes: Mutant of Ame55
In the case of B31, the Affinity change is more than 10 fold.

B32: Ame55 mutant, light chain 93A (antibody, V domains shown)
VH: B1 VH with A51I
VL: B1 VL with D93A
notes: Mutant of Ame55
For B32, the Affinity change was more than 10 fold.

B33: Ame55 mutant, light chain 89L (antibody, V domains shown)
VH: B1 VH with A51I
VL: B1 VL with V89L
notes: Mutant of Ame55
Regarding B33, the Affinity change was determined as 5 fold.

B34: Ame55 mutant, heavy chain 106A (antibody, V domains shown)
VH: B1 VH with A51I, V106A
VL: B1 VL
notes: Mutant of Ame55
As to B34, the Affinity change is more than 10 fold.

B35: Ame55 mutant, heavy chain 99S (antibody, V domains shown)
VH: B1 VH with A51I, G99S
VL: B1 VL
notes: Mutant of Ame55
As for B35, the Affinity change was more than 10 fold.

B36: Ame55 mutant, heavy chain 58A (antibody, V domains shown)
VH: B1 VH with A51I, T58A
VL: B1 VL
notes: Mutant of Ame55
Take B36: the Affinity change is more than 10 fold.

B37: Ame55 mutant, light chain 90A (antibody, V domains shown)
VH: B1 VH with A51I
VL: B1 VL with W90A
notes: Mutant of Ame55
B37: the Affinity change was more than 10 fold.

B38: Ame55 mutant, light chain 92S (antibody, V domains shown)
VH: B1 VH with A51I
VL: B1 VL with G92S
notes: Mutant of Ame55
Turning to B38, the Affinity change was found to be 4 fold.

B39: Ame55 mutant, light chain 94A (antibody, V domains shown)
VH: B1 VH with A51I
VL: B1 VL with W94A
notes: Mutant of Ame55
As to B39, the Affinity change was more than 10 fold.

B40: Ame55 mutant, light chain 26N(C2) (antibody, V domains shown)
VH: B1 VH with A51I
VL: B1 VL with A26N
notes: Mutant of Ame55
With B40, the Affinity change worked out at 1 fold.

B41: Ame55 mutant, heavy chain 100A (antibody, V domains shown)
VH: B1 VH with A51I, I100A
VL: B1 VL
notes: Mutant of Ame55
Take B41: the Affinity change came to 5 fold.

B42: Ame55 mutant, light chain 88Q (antibody, V domains shown)
VH: B1 VH with A51I
VL: B1 VL with S88Q
notes: Mutant of Ame55
As to B42, the Affinity change worked out at 2 fold.

B43: Ame55 mutant, heavy chain 107S (antibody, V domains shown)
VH: B1 VH with A51I, A107S
VL: B1 VL
notes: Mutant of Ame55
With B43, the Affinity change turned out to be 0.2 fold.

B44: Ame55 mutant, heavy chain 60A (antibody, V domains shown)
VH: B1 VH with A51I, Y60A
VL: B1 VL
notes: Mutant of Ame55
Turning to B44, the Affinity change came to 5 fold.
